The source of these data is PMC5855711.

Holding throughout (conditions): remark: other sources report otherwise
Assay [1] addresses T1, human recombinant HSP60 (without mitochondrial signal sequence) (human), P10809. Briefly: transmission electron microscopy (uranyl acetate stain); 1 mM ATP; HSP60 (wild type or D398A) 0.1 μM alone or with HSP10 0.2 μM, or GroEL 0.1 μM with GroES 0.2 μM, buffer D, 25 °C, 10 min; more than 500 side views counted, three experiments; self-association: single ring (7) to double ring (14).

The target in assay [2] is T1, human recombinant HSP60 (without …). Briefly: transmission electron microscopy (uranyl acetate stain); 1 mM ADP; HSP60 0.1 μM alone or with HSP10 0.2 μM, buffer D, 25 °C, 10 min.
The target is the same in assay [3]. Kind of assay: small angle X-ray scattering (SAXS); 1 mM ATP; 3.0 mg/mL HSP60 or GroEL with various concentrations of co-chaperone, buffer D, 25 °C; self-association: single ring (7) to double ring (14).
Assay [4] shares this target. Briefly: SEC; Superdex 200 10/300 GL, 0.41 μM HSP60 or GroEL, 0.1 M NaCl, 5% glycerol, 50 mM HEPES-KOH pH 7.4, no nucleotide; size from a calibration curve.
Assay [5] has the same target. Briefly: transmission electron microscopy (uranyl acetate stain); no nucleotide; HSP60 0.1 μM alone or with HSP10 0.2 μM, or GroEL 0.1 μM with GroES 0.2 μM, buffer D (10 mM MgCl2, 20 mM KCl, 1 mM DTT, 50 mM HEPES-KOH pH 7.4), 25 °C, 10 min.

B1: human recombinant HSP60 (without mitochondrial signal sequence), P10809 27-573 (natural protein)
chain: AKDVKFGADARALMLQGVDLLADAVAVTMGPKGRTVIIEQSWGSPKVTKDGVTVAKSIDLKDKYKNIGAKLVQDVANNTNEEAGDGTTTATVLARSIAKEGFEKISKGANPVEIRRGVMLAVDAVIAELKKQSKPVTTPEEIAQVATISANGDKEIGNIISDAMKKVGRKGVITVKDGKTLNDELEIIEGMKFDRGYISPYFINTSKGQKCEFQDAYVLLSEKKISSIQSIVPALEIANAHRKPLVIIAEDVDGEALSTLVLNRLKVGLQVVAVKAPGFGDNRKNQLKDMAIATGGAVFGEEGLTLNLEDVQPHDLGKVGEVIVTKDDAMLLKGKGDKAQIEKRIQEIIEQLDVTTSEYEKEKLNERLAKLSDGVAVLKVGGTSDVEVNEKKDRVTDALNATRAAVEEGIVLGGGCALLRCIPALDSLTPANEDQKIGIEIIKRTLKIPAMTIAKNAGVEGSLIVEKIMQSSSEVGYDAMAGDFVNMVEKGIIDPTKVVRTALLDAAGVASLLTTAEVVVTEIPKEEKDPGMGAMGGMGGGMGGGMF
On to B1, for which, in assay [1], the percent of HSP60-containing complexes with the double-ring structure (with HSP10 and ATP) was found to be 80%; the percent of HSP60 in double rings, football-type and bullet-type (with HSP10 and ATP) amounted to 70%; the percent of side views that are HSP60 (7), single ring alone (with HSP10 and ATP) turned out to be 10%; the percent of side views that are HSP60 (14), double ring alone (with HSP10 and ATP) came out at 2%. Further, the stoichiometry N in assay [2] was found to be 7. For the same molecule, in assay [3], the fraction of double-ring HSP60 (curve fitting, HSP60+ATP) was 0.14; the fraction of single-ring HSP60 (curve fitting, HSP60+ATP) was 0.86; the fraction of single-ring HSP60 without HSP10 (curve fitting, HSP10 and ATP present) amounted to 0.09; the percent of HSP60 in double rings (from I(0)/C, ATP, no HSP10) came to 50%. Moreover, in assay [4], the stoichiometry N came to 7.3 subunits. Further, the stoichiometry N in assay [5] is 7.

By stoichiometry N is commonly meant a count of units in the complex or per binding partner.
